Measurements published in patent publication US20190307847A1.

Target: mouse FGFR4/β-klotho complex co-expressed in rat L6 myoblast cells (mouse) (UniProt Q03142)
Assay: cell-based or functional assay

Sequence of mouse FGFR4/β-klotho complex co-expressed in rat L6 myoblast cells (mouse) (Q03142 17-799, chain 1 of 2): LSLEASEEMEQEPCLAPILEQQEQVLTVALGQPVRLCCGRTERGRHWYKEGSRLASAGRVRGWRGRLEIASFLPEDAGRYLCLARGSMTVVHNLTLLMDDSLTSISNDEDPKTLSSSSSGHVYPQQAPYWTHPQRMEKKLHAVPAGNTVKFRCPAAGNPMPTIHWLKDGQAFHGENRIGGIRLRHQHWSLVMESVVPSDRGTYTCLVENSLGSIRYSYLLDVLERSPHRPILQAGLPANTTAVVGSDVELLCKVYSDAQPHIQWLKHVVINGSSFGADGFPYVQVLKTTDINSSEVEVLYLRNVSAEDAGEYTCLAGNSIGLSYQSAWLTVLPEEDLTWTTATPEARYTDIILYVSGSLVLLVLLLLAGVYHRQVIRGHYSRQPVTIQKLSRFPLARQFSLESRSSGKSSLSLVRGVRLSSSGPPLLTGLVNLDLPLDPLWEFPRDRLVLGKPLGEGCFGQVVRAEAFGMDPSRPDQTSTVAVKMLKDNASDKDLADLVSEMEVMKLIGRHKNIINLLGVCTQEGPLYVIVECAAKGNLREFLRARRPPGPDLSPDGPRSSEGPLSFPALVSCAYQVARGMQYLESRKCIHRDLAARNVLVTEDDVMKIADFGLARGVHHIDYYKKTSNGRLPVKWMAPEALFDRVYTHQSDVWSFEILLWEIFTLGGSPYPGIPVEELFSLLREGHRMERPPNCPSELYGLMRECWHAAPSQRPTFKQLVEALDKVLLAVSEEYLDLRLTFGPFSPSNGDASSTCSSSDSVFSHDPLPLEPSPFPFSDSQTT
Sequence of mouse FGFR4/β-klotho complex co-expressed in rat L6 myoblast cells (mouse) (Q99N32 whole entry, chain 2 of 2, further chain): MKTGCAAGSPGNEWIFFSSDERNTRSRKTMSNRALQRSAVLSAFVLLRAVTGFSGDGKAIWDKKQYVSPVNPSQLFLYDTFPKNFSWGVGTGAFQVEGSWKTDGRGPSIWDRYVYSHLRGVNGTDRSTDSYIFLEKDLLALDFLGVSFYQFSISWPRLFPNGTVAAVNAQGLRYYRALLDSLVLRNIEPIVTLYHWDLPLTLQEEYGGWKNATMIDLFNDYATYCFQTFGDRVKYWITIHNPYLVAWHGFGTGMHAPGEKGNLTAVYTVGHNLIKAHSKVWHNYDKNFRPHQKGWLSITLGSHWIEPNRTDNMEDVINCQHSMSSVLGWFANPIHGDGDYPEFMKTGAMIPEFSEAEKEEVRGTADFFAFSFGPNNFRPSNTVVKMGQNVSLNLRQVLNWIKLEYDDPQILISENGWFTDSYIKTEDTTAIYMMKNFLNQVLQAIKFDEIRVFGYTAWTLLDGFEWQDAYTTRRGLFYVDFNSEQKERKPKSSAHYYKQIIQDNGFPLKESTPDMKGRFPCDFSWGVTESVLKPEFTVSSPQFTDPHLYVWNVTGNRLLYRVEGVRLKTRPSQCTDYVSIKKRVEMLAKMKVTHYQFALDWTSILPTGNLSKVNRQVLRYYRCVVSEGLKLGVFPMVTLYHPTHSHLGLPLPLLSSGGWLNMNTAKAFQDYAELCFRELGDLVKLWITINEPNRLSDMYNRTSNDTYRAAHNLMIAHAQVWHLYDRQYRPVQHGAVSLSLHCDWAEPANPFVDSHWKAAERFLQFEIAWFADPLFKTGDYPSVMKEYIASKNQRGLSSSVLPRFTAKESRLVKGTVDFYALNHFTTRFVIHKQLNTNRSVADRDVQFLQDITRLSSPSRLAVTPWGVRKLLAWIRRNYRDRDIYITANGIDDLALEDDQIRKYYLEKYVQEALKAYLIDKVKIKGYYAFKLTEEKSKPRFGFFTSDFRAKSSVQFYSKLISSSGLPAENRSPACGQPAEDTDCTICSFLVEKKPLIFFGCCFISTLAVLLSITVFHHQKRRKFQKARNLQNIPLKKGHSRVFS

For “FGF19 (human fibroblast growth factor 19, wild type) (from UniProt O95750 25-216) (ligand)”, the EC50 (pM), ELK luciferase assay in L6 cells was 52.5 pM and the Emax (fold potentiation), ELK luciferase assay in L6 cells (fold potentiation) was 1.82.
